# Test results as given in article PMC9279507.
# T1: 6XHis-tagged TgIST-R2 (G365-S420)
# T1 chain: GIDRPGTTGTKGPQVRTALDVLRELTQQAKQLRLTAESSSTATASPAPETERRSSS
# Target: T1, 6XHis-tagged TgIST-R2 (G365-S420)
# Assay: nickel affinity copurification, SDS-PAGE, Coomassie blue band quantification
# Details: chain shown with the change;; parent: est. 1.0; read off a plot
row,Binder,ratio to parent
1,"STAT1cc (STAT1 core fragment, A656C and N658C, locked dimer), tag-free, P42224 D672A (protein) MSQWYELQQLDSKFLEQVHQLYDDSFPMEIRQYLAQWLEKQDWEHAANDVSFATIRFHDLLSQLDDQYSRFSLENNFLLQHNIRKSKRNLQDNFQEDPIQMSMIIYSCLKEERKILENAQRFNQAQSGNIQSTVMLDKQKELDSKVRNVKDKVMCIEHEIKSLEDLQDEYDFKCKTLQNREHETNGVAKSDQKQEQLLLKKMYLMLDNKRKEVVHKIIELLNVTELTQNALINDELVEWKRRQQSACIGGPPNACLDQLQNWFTIVAESLQQVRQQLKKLEELEQKYTYEHDPITKNKQVLWDRTFSLFQQLIQSSFVVERQPCMPTHPQRPLVLKTGVQFTVKLRLLVKLQELNYNLKVKVLFDKDVNERNTVKGFRKFNILGTHTKVMNMEESTNGSLAAEFRHLQLKEQKNAGTRTNEGPLIVTEELHSLSFETQLCQPGLVIDLETTSLPVVVISNVSQLPSGWASILWYNMLVAEPRNLSFFLTPPCARWAQLSEVLSWQFSSVTKRGLNVDQLNMLGEKLLGPNASPDGLIPWTRFCKENINDKNFPFWLWIESILELIKKHLLPLWNDGCIMGFISKERERALLKDQQPGTFLLRFSESSREGAITFTWVERSQNGGEPDFHAVEPYTKKELSAVTFPDIIRNYKVMAAENIPENPLKYLYPNIAKDHAFGKYYSRPKEAPEPMELDGPKGTGYIKTELISVSEVHPSRLQTTDNLLPMSPEEFDEVSRIVGSVEFDSMMNTV",0.93
2,"STAT1cc (STAT1 core fragment, A656C and N658C, locked dimer), tag-free, P42224 M654A (protein) STVMLDKQKELDSKVRNVKDKVMCIEHEIKSLEDLQDEYDFKCKTLQNREHETNGVAKSDQKQEQLLLKKMYLMLDNKRKEVVHKIIELLNVTELTQNALINDELVEWKRRQQSACIGGPPNACLDQLQNWFTIVAESLQQVRQQLKKLEELEQKYTYEHDPITKNKQVLWDRTFSLFQQLIQSSFVVERQPCMPTHPQRPLVLKTGVQFTVKLRLLVKLQELNYNLKVKVLFDKDVNERNTVKGFRKFNILGTHTKVMNMEESTNGSLAAEFRHLQLKEQKNAGTRTNEGPLIVTEELHSLSFETQLCQPGLVIDLETTSLPVVVISNVSQLPSGWASILWYNMLVAEPRNLSFFLTPPCARWAQLSEVLSWQFSSVTKRGLNVDQLNMLGEKLLGPNASPDGLIPWTRFCKENINDKNFPFWLWIESILELIKKHLLPLWNDGCIMGFISKERERALLKDQQPGTFLLRFSESSREGAITFTWVERSQNGGEPDFHAVEPYTKKELSAVTFPDIIRNYKVAACECIPENPLKYLYPNIDKDHAFGKYYSRPKEAPEPMELDGPKGTGYIKTELISVSEVH",0.04
3,"STAT1cc (STAT1 core fragment, A656C and N658C, locked dimer), tag-free, P42224 E632A (protein) MSQWYELQQLDSKFLEQVHQLYDDSFPMEIRQYLAQWLEKQDWEHAANDVSFATIRFHDLLSQLDDQYSRFSLENNFLLQHNIRKSKRNLQDNFQEDPIQMSMIIYSCLKEERKILENAQRFNQAQSGNIQSTVMLDKQKELDSKVRNVKDKVMCIEHEIKSLEDLQDEYDFKCKTLQNREHETNGVAKSDQKQEQLLLKKMYLMLDNKRKEVVHKIIELLNVTELTQNALINDELVEWKRRQQSACIGGPPNACLDQLQNWFTIVAESLQQVRQQLKKLEELEQKYTYEHDPITKNKQVLWDRTFSLFQQLIQSSFVVERQPCMPTHPQRPLVLKTGVQFTVKLRLLVKLQELNYNLKVKVLFDKDVNERNTVKGFRKFNILGTHTKVMNMEESTNGSLAAEFRHLQLKEQKNAGTRTNEGPLIVTEELHSLSFETQLCQPGLVIDLETTSLPVVVISNVSQLPSGWASILWYNMLVAEPRNLSFFLTPPCARWAQLSEVLSWQFSSVTKRGLNVDQLNMLGEKLLGPNASPDGLIPWTRFCKENINDKNFPFWLWIESILELIKKHLLPLWNDGCIMGFISKERERALLKDQQPGTFLLRFSESSREGAITFTWVERSQNGGEPDFHAVAPYTKKELSAVTFPDIIRNYKVMAAENIPENPLKYLYPNIDKDHAFGKYYSRPKEAPEPMELDGPKGTGYIKTELISVSEVHPSRLQTTDNLLPMSPEEFDEVSRIVGSVEFDSMMNTV",0.57
4,"STAT1cc (STAT1 core fragment, A656C and N658C, locked dimer), tag-free, P42224 D674A (protein) MSQWYELQQLDSKFLEQVHQLYDDSFPMEIRQYLAQWLEKQDWEHAANDVSFATIRFHDLLSQLDDQYSRFSLENNFLLQHNIRKSKRNLQDNFQEDPIQMSMIIYSCLKEERKILENAQRFNQAQSGNIQSTVMLDKQKELDSKVRNVKDKVMCIEHEIKSLEDLQDEYDFKCKTLQNREHETNGVAKSDQKQEQLLLKKMYLMLDNKRKEVVHKIIELLNVTELTQNALINDELVEWKRRQQSACIGGPPNACLDQLQNWFTIVAESLQQVRQQLKKLEELEQKYTYEHDPITKNKQVLWDRTFSLFQQLIQSSFVVERQPCMPTHPQRPLVLKTGVQFTVKLRLLVKLQELNYNLKVKVLFDKDVNERNTVKGFRKFNILGTHTKVMNMEESTNGSLAAEFRHLQLKEQKNAGTRTNEGPLIVTEELHSLSFETQLCQPGLVIDLETTSLPVVVISNVSQLPSGWASILWYNMLVAEPRNLSFFLTPPCARWAQLSEVLSWQFSSVTKRGLNVDQLNMLGEKLLGPNASPDGLIPWTRFCKENINDKNFPFWLWIESILELIKKHLLPLWNDGCIMGFISKERERALLKDQQPGTFLLRFSESSREGAITFTWVERSQNGGEPDFHAVEPYTKKELSAVTFPDIIRNYKVMAAENIPENPLKYLYPNIDKAHAFGKYYSRPKEAPEPMELDGPKGTGYIKTELISVSEVHPSRLQTTDNLLPMSPEEFDEVSRIVGSVEFDSMMNTV",0.9
5,"STAT1cc (STAT1 core fragment, A656C and N658C, locked dimer), tag-free, P42224 S620A (protein) MSQWYELQQLDSKFLEQVHQLYDDSFPMEIRQYLAQWLEKQDWEHAANDVSFATIRFHDLLSQLDDQYSRFSLENNFLLQHNIRKSKRNLQDNFQEDPIQMSMIIYSCLKEERKILENAQRFNQAQSGNIQSTVMLDKQKELDSKVRNVKDKVMCIEHEIKSLEDLQDEYDFKCKTLQNREHETNGVAKSDQKQEQLLLKKMYLMLDNKRKEVVHKIIELLNVTELTQNALINDELVEWKRRQQSACIGGPPNACLDQLQNWFTIVAESLQQVRQQLKKLEELEQKYTYEHDPITKNKQVLWDRTFSLFQQLIQSSFVVERQPCMPTHPQRPLVLKTGVQFTVKLRLLVKLQELNYNLKVKVLFDKDVNERNTVKGFRKFNILGTHTKVMNMEESTNGSLAAEFRHLQLKEQKNAGTRTNEGPLIVTEELHSLSFETQLCQPGLVIDLETTSLPVVVISNVSQLPSGWASILWYNMLVAEPRNLSFFLTPPCARWAQLSEVLSWQFSSVTKRGLNVDQLNMLGEKLLGPNASPDGLIPWTRFCKENINDKNFPFWLWIESILELIKKHLLPLWNDGCIMGFISKERERALLKDQQPGTFLLRFSESSREGAITFTWVERAQNGGEPDFHAVEPYTKKELSAVTFPDIIRNYKVMAAENIPENPLKYLYPNIDKDHAFGKYYSRPKEAPEPMELDGPKGTGYIKTELISVSEVHPSRLQTTDNLLPMSPEEFDEVSRIVGSVEFDSMMNTV",0.8
6,"STAT1cc (STAT1 core fragment, A656C and N658C, locked dimer), tag-free, P42224 D627A (protein) STVMLDKQKELDSKVRNVKDKVMCIEHEIKSLEDLQDEYDFKCKTLQNREHETNGVAKSDQKQEQLLLKKMYLMLDNKRKEVVHKIIELLNVTELTQNALINDELVEWKRRQQSACIGGPPNACLDQLQNWFTIVAESLQQVRQQLKKLEELEQKYTYEHDPITKNKQVLWDRTFSLFQQLIQSSFVVERQPCMPTHPQRPLVLKTGVQFTVKLRLLVKLQELNYNLKVKVLFDKDVNERNTVKGFRKFNILGTHTKVMNMEESTNGSLAAEFRHLQLKEQKNAGTRTNEGPLIVTEELHSLSFETQLCQPGLVIDLETTSLPVVVISNVSQLPSGWASILWYNMLVAEPRNLSFFLTPPCARWAQLSEVLSWQFSSVTKRGLNVDQLNMLGEKLLGPNASPDGLIPWTRFCKENINDKNFPFWLWIESILELIKKHLLPLWNDGCIMGFISKERERALLKDQQPGTFLLRFSESSREGAITFTWVERSQNGGEPAFHAVEPYTKKELSAVTFPDIIRNYKVMACECIPENPLKYLYPNIDKDHAFGKYYSRPKEAPEPMELDGPKGTGYIKTELISVSEVH",0.04
